The text below walks through data of PMC12795676, “Integrin α5β1 mediates the inhibitory effects of vasoinhibin on angiogenesis and vascular permeability [drawing 1]” (The Journal of Biological Chemistry, 2025).

Positions count from the first letter of the chain named. Names and notes keep the numbering of the source.

The labels stand for the following.
B1: Vi-H46A: Vi mutant H46A (protein)
chain: LPICPGGAARCQVTLRDLFDRAVVLSHYIHNLSSEMFSEFDKRYTAGRGFITKAINSCHTSSLATPEDKEQAQQMNQKDFLSLIVSILRSWNEPLYHLVTEVRGMQEAPEAILSKAVEIEEQTKRLLEGMELIVSQVHPETKENEIYPVWSGLPSLQMADEESRLSAYYNLLHCLRRDSHKIDNYLKLLKCRIIHNNNC
B2: Vi-R48A: Vi mutant R48A (protein)
chain: B1 chain with A46H, R48A
B3: Vi-H46A/R48A: Vi double mutant H46A/R48A (protein)
chain: B1 chain with R48A

T1 sequence (P08648 42-995 limits assumed): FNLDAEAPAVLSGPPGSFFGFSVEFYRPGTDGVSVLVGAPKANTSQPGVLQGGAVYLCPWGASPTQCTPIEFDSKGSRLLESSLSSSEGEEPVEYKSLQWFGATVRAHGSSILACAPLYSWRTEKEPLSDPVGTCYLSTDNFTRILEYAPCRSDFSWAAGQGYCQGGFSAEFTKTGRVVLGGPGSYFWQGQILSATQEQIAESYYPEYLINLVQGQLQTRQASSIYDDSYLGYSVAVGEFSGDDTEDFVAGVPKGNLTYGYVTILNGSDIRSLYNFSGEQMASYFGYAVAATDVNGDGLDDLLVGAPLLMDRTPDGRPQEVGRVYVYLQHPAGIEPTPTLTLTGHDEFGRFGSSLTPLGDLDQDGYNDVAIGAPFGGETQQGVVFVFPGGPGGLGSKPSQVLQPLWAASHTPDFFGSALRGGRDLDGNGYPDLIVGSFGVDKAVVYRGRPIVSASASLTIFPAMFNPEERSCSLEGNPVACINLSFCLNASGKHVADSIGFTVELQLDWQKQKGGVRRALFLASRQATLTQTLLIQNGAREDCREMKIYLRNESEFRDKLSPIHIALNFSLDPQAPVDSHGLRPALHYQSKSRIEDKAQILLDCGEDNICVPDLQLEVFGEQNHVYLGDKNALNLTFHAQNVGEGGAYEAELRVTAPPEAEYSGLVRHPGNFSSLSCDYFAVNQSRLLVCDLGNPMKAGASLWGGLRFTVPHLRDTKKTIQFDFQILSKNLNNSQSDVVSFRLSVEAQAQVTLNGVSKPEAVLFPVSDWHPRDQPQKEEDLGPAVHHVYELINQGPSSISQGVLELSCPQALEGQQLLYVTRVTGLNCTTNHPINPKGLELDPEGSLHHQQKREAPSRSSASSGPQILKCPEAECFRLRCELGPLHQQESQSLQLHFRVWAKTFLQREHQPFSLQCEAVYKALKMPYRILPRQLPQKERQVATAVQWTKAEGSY
T1 sequence (P05556 21-728 limits assumed): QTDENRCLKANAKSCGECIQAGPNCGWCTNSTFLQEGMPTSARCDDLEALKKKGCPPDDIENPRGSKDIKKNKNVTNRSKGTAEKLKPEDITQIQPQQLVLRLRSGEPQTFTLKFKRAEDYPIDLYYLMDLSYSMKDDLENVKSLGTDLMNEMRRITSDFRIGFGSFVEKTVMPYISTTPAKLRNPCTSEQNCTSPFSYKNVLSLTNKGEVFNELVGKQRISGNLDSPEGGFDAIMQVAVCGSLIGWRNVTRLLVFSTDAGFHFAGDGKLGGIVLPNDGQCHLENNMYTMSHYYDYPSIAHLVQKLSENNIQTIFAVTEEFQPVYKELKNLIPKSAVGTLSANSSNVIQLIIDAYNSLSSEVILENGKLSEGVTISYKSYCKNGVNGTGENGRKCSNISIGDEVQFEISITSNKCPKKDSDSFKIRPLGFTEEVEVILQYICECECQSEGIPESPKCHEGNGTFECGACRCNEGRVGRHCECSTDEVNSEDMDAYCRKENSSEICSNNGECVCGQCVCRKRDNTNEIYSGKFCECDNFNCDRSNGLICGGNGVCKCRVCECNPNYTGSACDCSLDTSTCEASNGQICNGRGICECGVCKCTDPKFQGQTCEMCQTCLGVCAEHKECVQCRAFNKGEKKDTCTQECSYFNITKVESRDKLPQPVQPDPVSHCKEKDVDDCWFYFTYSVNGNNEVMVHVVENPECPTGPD

This assay addresses T1, integrin α5β1 (Homo sapiens, UniProt P05556+P08648).
T1 construct: purchased Bio-Techne
Description: ELISA, binding to immobilized integrin α5β1. The settings on record: 100 nM mutant, compared with Vi. Here is the method:
Vi ([49]) and its mutants were produced as reported ([14]). HUVECs were cultured as reported ([14], [50]).
Plates coated with 2 μg mL^−1 integrin α5β1, PAI-1, or PAI-1-uPA complex (37 °C, 10 min) were incubated with B-Vi45-51, Vi, or 100 nM ViH46A, ViR48A, or ViH46A/R48A. Competition used excess Src, alanine mutants, or THGR peptides. Detection used horseradish peroxidase antibodies and 3,3′,5,5′-tetramethylbenzidine.
For B1, the “Integrin α5β1 binding of Vi mutants” value is reported as “reduced integrin binding”. As for B2, the entry is “reduced integrin binding”. As for B3, the entry is “reduced integrin binding”.
